Read-outs that look alike come from different tables or passages of the source.

Experimental findings from publication doi:10.1101/2020.04.23.053322 are described below.

Assay [1] deals with ATF6-CFP (human ATF6 fused to mCerulean on the C-terminal side) (human) (UniProt P18850). Description: FRET or BRET.
The target is the same in assay [2]. Put plainly: FRET or BRET. The source holds these as a separate data set.

Sequence of UniProt P18850 (P18850 whole entry, the tested form may be a part): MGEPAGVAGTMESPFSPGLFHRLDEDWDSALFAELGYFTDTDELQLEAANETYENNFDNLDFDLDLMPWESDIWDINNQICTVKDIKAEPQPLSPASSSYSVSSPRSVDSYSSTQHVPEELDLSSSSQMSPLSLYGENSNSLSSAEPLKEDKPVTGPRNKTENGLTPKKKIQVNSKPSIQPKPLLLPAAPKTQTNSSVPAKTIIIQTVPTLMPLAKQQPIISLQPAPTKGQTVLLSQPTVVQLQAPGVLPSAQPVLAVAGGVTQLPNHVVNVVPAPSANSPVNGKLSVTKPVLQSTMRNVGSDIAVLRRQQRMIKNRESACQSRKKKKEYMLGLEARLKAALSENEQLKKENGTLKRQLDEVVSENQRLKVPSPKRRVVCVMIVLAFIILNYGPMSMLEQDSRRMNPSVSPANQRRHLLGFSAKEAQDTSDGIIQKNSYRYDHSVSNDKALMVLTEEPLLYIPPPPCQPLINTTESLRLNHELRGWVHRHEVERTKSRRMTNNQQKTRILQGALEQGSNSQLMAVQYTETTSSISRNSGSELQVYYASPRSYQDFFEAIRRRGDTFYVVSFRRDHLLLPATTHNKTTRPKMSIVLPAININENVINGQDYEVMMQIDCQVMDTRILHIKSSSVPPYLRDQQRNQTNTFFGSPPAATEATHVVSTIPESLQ

Turning to “mVenus-tagged sorcin (YFP-SRI) (from UniProt P30626 1-198) (natural protein)”, the FRET efficiency came to 11.4% in assay [1] and 11.7% in assay [2].
